Results on 1 molecule are retold here after patent US20250163149A1, “ANTI-RAGE ANTIBODY” (Swansea University, priority 2022, published 2025).

Experiment [1] deals with T1, RAGE recombinant protein (Human rRAGE) (Homo sapiens, UniProt Q15109).
T1 construct: Human rRAGE=Full-length RAGE recombinant protein from Merck; purchased Merck
Description: Surface plasmon resonance binding kinetics (Biacore T200), recombinant protein analyte. The note with it: analyte RAGE recombinant protein, or RAGE synthetic peptide, not separated. The procedure:
(§1) For on-rate and off-rate screening, Biacore™ T200 system (Cytiva, Uppsala, Sweden) was used to perform SPR analysis with 1×HBS-EP+ buffer (0.01M Hepes, 0.15M NaCl, 0.003M ethylenediaminetetraacetic acid, and 0.05% Surfactant P20, pH 7.4) (BR100669) used as sample and running buffer. The analysis temperature at the sensor chip surface and within the compartment was set to 25° C. Firstly, pH scouting with 10 mM sodium acetate buffer 4.0 (BR-1003-49), 10 mM sodium acetate buffer 4.5 (BR-1003-50), 10 mM sodium acetate buffer 5.0 (BR-1003-51) and 10 mM sodium acetate buffer 5.5 (BR-1003-52) was performed to identify the optimal pH required for ligand (α-RAGE antibodies) immobilization. This was followed by diluting the ligand with the appropriate Acetate buffer to at least 10 μg/mL. The ligand immobilization on the surface Series S Sensor Chip CM5 (29-1496-03, Cytiva) was performed using the Amine Coupling Kit (BR100050, Cytiva) containing 1-Etyhyl-3-(3-dimethylaminopropyl)-carbodiimide hydrochloride (EDC), N-Hydroxysuccinimide (NHS) and 1.0M ethanolamine-HcL PH 8.5 in accordance with the manufacturer's instructions. For each experimental run, the ligand was immobilized in flow cells 2 or 4 while flow cells 1 or 3 were left unmodified. Flow cells 2 and 4 were used as active flow cells while flow cells 1 and 3 were used as reference flow cells. Ligand immobilization levels were typically within the range 500-900 RU for the kinetic experiments and injected with a flow rate of 10 μL/min and contact time of 300 s. Analytes (RAGE recombinant protein and synthetic peptides) were injected for 120 s with a flow rate of 30 μL/min and dissociation time of 600 s run in order of increasing concentration over the reference and active flow cells using a multi-cycle kinetic approach with five-seven concentration range. Following each binding cycle, the surface was regenerated with a 30 s injection of 10 mM Glycine-HcL, pH 2.5 regeneration solution (BR-1003-56), removing the bound antibody with a contact time of 30 s, flow rate of 30 μL/min and a stabilization period of Os. […]
(SPR reads the build-up and loss of mass on a sensor chip optically.)

The target of experiment [2] is T2, RAGE synthetic peptide (Homo sapiens, UniProt Q15109).
T2 construct: purchased Biorad; host or cells: chemical synthesis
T2 sequence (Q15109 39-65 limits assumed): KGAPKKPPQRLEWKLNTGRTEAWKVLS
Nature of the experiment: Surface plasmon resonance binding kinetics (Biacore T200), synthetic peptide analyte. The note with it: chimeric antibodies and AB11451. Here is the method: as §1, with “cells.” for “cells. Ligand immobilization levels were typically within the range 500-900 RU for the kinetic experiments and injected with a flow rate of 10 μL/min and contact time of 300 s. Analytes (RAGE recombinant protein and synthetic peptides) were injected for 120 s with a flow rate of 30 μL/min and dissociation time of 600 s run in order of increasing concentration over the reference and active flow cells using a multi-cycle kinetic approach with five-seven concentration range. Following each binding cycle, the surface was regenerated with a 30 s injection of 10 mM Glycine-HcL, pH 2.5 regeneration solution (BR-1003-56), removing the bound antibody with a contact time of 30 s, flow rate of 30 μL/min and a stabilization period of Os.”

Experiment [3] concerns the target T3, RAGE protein on SKOV3 (Homo sapiens, UniProt Q15109).
T3 construct: RAGE protein expressed on the extracellular membrane of cancer cells in its native conformation; endogenous in cells; host or cells: SKOV3 (ECACC)
Description: Immunofluorescent staining of RAGE basal expression on SKOV3 cells. The experiment is classed as cell-based. The note with it: primary antibody 4 μg/ml. Here is the method:
To screen binding of α-RAGE antibodies by immunofluorescence, 1.5×10^4 SKOV3 cells/well (obtained from the European Collection of Authenticated Cell Cultures, ECACC, Public Health England, UK) were seeded in 8-well chamber slides (Ibidi) in 300 μl of stripped medium and cultured for 48 h in a humidified, 5% CO2 in air atmosphere incubator at 37° C. After culture, cells were fixed with 4% paraformaldehyde (Sigma) for 20 minutes, permeabilized with 0.1% Triton X-100 (Sigma) for 10 minutes at 4° C. and blocked with 3% BSA in PBS for 1 h. Primary antibodies diluted at 4 μg/ml in 3% BSA-PBS were incubated overnight at 4° C., followed by 1 h incubation with Alexa-488 secondary antibody. Cells were washed with PBS extensively between all steps, counterstained before imaging with Hoechst (Life Technologies™) and imaged using a LSM710 confocal fluorescence microscopy system (Zeiss, UK).

Experiment [4] has as its target RAGE (Homo sapiens, UniProt Q15109). Nature of the experiment: Western blot on protein extracts from human healthy tissues. The note with it: brain, breast, kidney, liver, lung, ovary, pancreas, spleen and uterus.
For experiment [5], the system named is RAGE. Nature of the experiment: Western blot on protein extracts from ovarian cancer cell lines (OCCL). More on the design: species or system human. The conditions noted are these: whole-cell extracts of SKOV3, OVCAR3, A2780 and cisplatin-resistant lines; antibody 1 μg/mL. The procedure:
Confluent cultures of cells were lysed in ice cold RIPA buffer (Sigma-Aldrich), whole-cell protein extracts were quantified with DC protein assay, 30 μg/lane were resolved by SDS-PAGE on TGX precast gels, transferred to mini PDVF membranes, blocked 1 h at RT in 5% Bovine Serum Albumin (BSA) in TBST (Tris Buffered Saline, 0.1% Tween-20) and incubated o/n at 4° C. in the same solution with 1 μg/mL of mA9 (sc-365154, Santa Cruz Biotechnology) antibody, mHA9 antibody or hHA9 antibody, or GAPDH (Santa Cruz Biotechnology) as loading control. Membranes were then washed with TBST and incubated 1 h at RT with 0.1 μg/mL of IgG horseradish peroxidase secondary antibody (GE Healthcare) or […] of Goat F(ab′) 2 Anti-Mouse IgG-F(ab′) 2 horseradish peroxidase secondary antibody (Abcam). Target proteins were visualised after incubation with Clarity Western ECL Substrate and imaged using a ChemiDoc System Bio-Rad Imager. Bands were quantified with ImageLab software. Unless stated all the materials specified above were obtained from Bio-Rad Laboratories.
For orientation: A western blot detects proteins with antibodies after separation by electrophoresis.

“Also recorded” adds a separate entry of the source.

T3 sequence (Q15109 23-404): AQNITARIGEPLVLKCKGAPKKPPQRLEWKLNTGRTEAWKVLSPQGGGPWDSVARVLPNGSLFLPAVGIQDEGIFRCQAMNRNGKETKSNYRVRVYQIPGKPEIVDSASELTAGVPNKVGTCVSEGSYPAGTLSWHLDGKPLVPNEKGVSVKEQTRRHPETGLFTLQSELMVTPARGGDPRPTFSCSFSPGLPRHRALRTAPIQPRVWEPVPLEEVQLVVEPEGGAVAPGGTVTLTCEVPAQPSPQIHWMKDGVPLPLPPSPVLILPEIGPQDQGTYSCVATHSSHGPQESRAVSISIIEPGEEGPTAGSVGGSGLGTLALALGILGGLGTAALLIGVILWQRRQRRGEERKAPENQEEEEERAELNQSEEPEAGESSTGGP
Sequence of RAGE (Q15109 23-317 limits assumed): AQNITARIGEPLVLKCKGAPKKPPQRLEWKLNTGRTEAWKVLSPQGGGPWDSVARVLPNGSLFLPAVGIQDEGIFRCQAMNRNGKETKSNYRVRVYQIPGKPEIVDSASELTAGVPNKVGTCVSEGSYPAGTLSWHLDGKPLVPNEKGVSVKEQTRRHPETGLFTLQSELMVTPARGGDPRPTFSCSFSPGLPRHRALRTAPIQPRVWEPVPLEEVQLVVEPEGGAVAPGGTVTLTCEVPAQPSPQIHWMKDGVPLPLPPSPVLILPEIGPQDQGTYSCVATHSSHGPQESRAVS
T1 sequence (Q15109 23-404): as the sequence (Q15109 23-404) above
Sequence of RAGE (Homo sapiens, UniProt Q15109) (Q15109 23-404): as above

B1: hHA9: chimeric humanised format of anti-RAGE antibody clone HA9 (antibody, V domains shown)
VH: EVKLVETGGGLVQPGRPMKLSCVASGFTLSDHWMNWVRQSPEKGLEWVAQIRNRPYKFEKYYSDSVKGRFTISRDDSKNSVYLQMNNLRAEDMGIYYCSSYRYGLAYWGQGTLVTVST
VL: DNLLTQSPAILSVSPGERVSFSCRASQTIDTRIHWYQQRKNGSPRLLIRYISESLSGIPSRFSGSGSGTEFTLTINSVESEDIADYYCQQTESWPITFGSGTKLEIK
For the molecule B1, the “affinity interaction by SPR (summary statement)” value is “weaker affinity” in experiment [1] and “weaker affinity than AB11451 antibody or the commercial antibodies” in experiment [1] (listed as chimeric-HA9). Further, in experiment [2], the “binding affinity to the new synthetic peptides” value is recorded as “the affinity is weak”. Also, the “immunofluorescent signal (basal RAGE staining)” value in experiment [3] (compared with other clones and AB11451) is on record as “highest detection of RAGE basal expression”; in experiment [3] (compared with other clones and AB11451, listed as chimeric HA9), “most intense immunofluorescent signal”; in experiment [3] (compared with other clones and AB11451, listed as chimeric-HA9) it was “higher intensity”. Further, the “RAGE expression detected in human healthy tissues” value in experiment [4] is recorded as “absent or very low expression”. Further, in experiment [5], the “RAGE isoform detected by western blot” value is on record as “able to detect expression levels of full-length transmembrane RAGE; also recorded: detection of high levels of full-length RAGE isoform”.
